Earlier results in patent US9687493B2, “Use of NK-1 receptor antagonists for treating hypomagnesemia, neurogenic inflammation, and cardiac dysfunction associated with EGFR-blocking drugs” (THE GEORGE WASHINGTON UNIVERSITY, priority 2014, dated 2017).

Conditions: patients with colorectal cancer, monoclonal antibodies targeting the EGFR; cited from earlier work

panitumumab
hypomagnesemia in treated patients: pronounced hypomagnesemia
